Earlier results, collected in PMC11053944.

What was measured:
[1] = biological target: Sba1 (Saccharomyces cerevisiae) (UniProt P28707); test: SPR
[2] = biological target: Sba1 (Saccharomyces cerevisiae) (UniProt P28707); test: ITC

Sba1 (Saccharomyces cerevisiae), sequence (P28707 2-216): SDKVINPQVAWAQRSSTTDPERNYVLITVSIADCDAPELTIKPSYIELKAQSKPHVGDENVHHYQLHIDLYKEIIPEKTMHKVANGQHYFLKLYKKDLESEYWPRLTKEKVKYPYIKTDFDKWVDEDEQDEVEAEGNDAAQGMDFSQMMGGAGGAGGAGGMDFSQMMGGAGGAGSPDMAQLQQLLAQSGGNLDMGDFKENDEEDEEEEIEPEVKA

Kd [1]: 540 nM
Kd [2]: 1750 nM
Substance: HSP90 (from UniProt P02829)
